Measurements published in patent US20260242478A1 (published 2026).

Tests used:
PSMA Fab (006 PSMA Fab) [1] = biological target: T1, PSMA Fab (006 PSMA Fab) (biotinylated (site not stated)); experiment: clonal phage ELISA on biotinylated PSMA Fab captured on neutravidin plates, anti-M13 HRP detection;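 note: crude clonal phage supernatants tested, before phage were added, wells were pretreated with PSMA antigen in blocking buffer or with blocking buffer only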
T1 construct: also called Anti-PSMA Fab

PSMA Fab (006 PSMA Fab) [2] = biological target: T1, PSMA Fab (006 PSMA Fab); experiment: clonal phage ELISA on captured PSMA Fab, wells pre-incubated with PSMA antigen as competitor
Method: (§1) Clonal phage were harvested as crude supernatants and screened via standard ELISAs. […] Prior to the addition of clonal phage. wells were incubated with blocking buffer and PSMA antigen or blocking buffer alone. Without washing or aspirating, clonal phage supernatants were then added to the wells and incubated for a short time. Wells were then washed followed by detection of bound phage using a horse radish conjugated anti-M13 antibody.

PSMA Fab (006 PSMA Fab) [3] = biological target: T2, PSMA Fab (006 PSMA Fab); experiment: as above
T2 construct: also called Anti-PSMA Fab; anti-PSMA Fab
Method: as §1

PSMA Fab (006 PSMA Fab) [4] = biological target: T2, PSMA Fab (006 PSMA Fab); experiment: clonal phage ELISA on biotinylated PSMA Fab captured on neutravidin, blocking buffer alone, anti-M13 HRP detection;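 note: clonal phage were tested as crude supernatants, and the signal reflects phage still bound to the wells after washing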
Method: as §1

| Binder | Phage binding ELISA signal, Anti-PSMA Fab (PSMA Fab (006 PSMA Fab) [1]) | Phage binding ELISA signal, Anti-PSMA Fab in presence of PSMA (PSMA Fab (006 PSMA Fab) [2]) | phage binding ELISA signal on anti-PSMA Fab in presence of PSMA (PSMA Fab (006 PSMA Fab) [3]) | phage binding ELISA signal on anti-PSMA Fab (PSMA Fab (006 PSMA Fab) [4]) |
| --- | --- | --- | --- | --- |
| DHKLCKPEWMCAGL [Phage-3659 (peptide-180 library clone)] | 1.5 | 0.0672 | – | – |
| ETSWCTPSWMCTGF [Phage-3656 (Peptide-180 library clone)] | – | – | 0.0752 | 1.5 |
| EVRRCEPSWMCSVV [Phage-3666 (peptide-180 library clone)] | 1.49 | 0.0749 | – | – |
| VAIACTPMWMCTGF [Phage-3661 (peptide-180 library clone)] | 1.49 | 0.113 | – | – |
| MVSHCVPLWMCAGF [Phage-3660 (peptide-180 library clone)] | 1.49 | 0.0616 | – | – |
| ESRFCVPAWMCAAV [Phage-3665 (peptide-180 library clone)] | 1.49 | 0.089 | – | – |
| LALACVPPWMCQGL [Phage-3654 (Peptide-180 library clone)] | – | – | 0.0897 | 1.5 |
| HVAACVPSWMCTGF [Phage-3662 (peptide-180 library clone)] | 1.49 | 0.0842 | – | – |
| LQVLCVPDWMCAGF [Phage-3668 (peptide-180 library clone)] | 1.49 | 0.091 | – | – |
| IDRHCTPSWMCYGF [Phage-3658 (Peptide-180 library clone)] | – | – | 0.0562 | 1.5 |
| VERMCEPLWMCAGL [Phage-3655 (Peptide-180 library clone)] | – | – | 0.0832 | 1.5 |
| SMIYCIPSWMCEGM [Phage-3657 (Peptide-180 library clone)] | – | – | 0.0844 | 1.5 |
| PVPYCRPIWMCQGL [Phage-3664 (peptide-180 library clone)] | 1.49 | 0.0736 | – | – |
| GHVYCEPQWMCYGF [Phage-3669 (peptide-180 library clone)] | 1.49 | 0.0791 | – | – |
| EGPLCKPAWMCRGF [Phage-3663 (peptide-180 library clone)] | 1.49 | 0.0963 | – | – |
| VQILCRPQWMCEGL [Phage-3653 (Peptide-180 library clone)] | – | – | 0.0669 | 1.5 |
| YIQACKPRWMCNGF [Phage-3667 (peptide-180 library clone)] | 1.49 | 0.0874 | – | – |
| PELRCHPPWMCTGF [Phage-3670 (peptide-180 library clone)] | 1.49 | 0.0997 | – | – |
